Experimental findings from patent US12404346B2, “Anti-naloxone and anti-naltrexone monoclonal antibodies and methods of production and use thereof” (Siemens Healthcare Diagnostics Inc., priority 2019, dated 2025) are described below.

The chains are these.
B1: 179B 9G1.1: anti-naloxone monoclonal antibody generated using naloxone-3-Val-mcKLH; heavy chain SEQ ID NO:161, light chain SEQ ID NO:165 (antibody)
heavy: MEWPCIFLFLLSVTEGVHSQVQLQQSGPELVKPGASVMISCKVFGDIFSSSWMNWVKQRPGKGLEWIGWICPGNGATKYNGKFKGKATLTADKSSGTGYMQLSSLTSEDSAVYFCELGRRDGYLDVWAGTTVTVSS
light: MESQTQVFVYMLLWLSGVDGDIVMTQSQKFIFTSEGDRVSVTCKASQNVGTNIAWYQQKPGQSPKALIYSASNRYSGVPDRFTGSGSGTDFTLTFSNVQSEDLAEYFCLQYNNYPWTFGGGTKLEIK
modifications: Amino acid sequence of heavy chain of monoclonal antibody 179B 9G1.1; Amino acid sequence of light chain of monoclonal antibody 179B 9G1.1
B2: 179B 9E12: anti-naloxone monoclonal antibody generated using naloxone-3-Val-mcKLH; heavy chain SEQ ID NO:181, light chain SEQ ID NO:185 (antibody, V domains shown)
VH: MGWSWIFLFLLSGTAGVHCQIQLQQSGPELVKPGASVKISCKASDYSFTNSYINWVKQRPGQGLEWIGWIYPGSTNTKYNEKFWDKATLTVDTSSNTAYMELRGLTSEDSAVYFCEMGTHYSYDVMDWGQGTSVTVSS
VL: MEFQTQVFVFVLLWLSGVDGDIVMTPSQKFMSTSVGDRVSITCKASQNVRTSVGWYQQKPGQSPKPLIYATSNRHTGVPDRFTGSGSGTDFSLTITNVQSEDQADYFCLQHWNYPWTFGGGTKLEIK
modifications: Amino acid sequence of heavy chain of monoclonal antibody 179B 9E12; Amino acid sequence of light chain of monoclonal antibody 179B 9E12
B3: 180C 8A10: anti-naltrexone monoclonal antibody generated using naltrexone-3-Val-mcKLH; heavy chain SEQ ID NO:101, light chain SEQ ID NO:105 (antibody)
heavy: MGWSYIFLFLVATVTDVHSQVQLQQPGAELVKPGASVKLSCKASGYTFTNYWINWVKQRPGQGLEWLGEINPSNSNTKYNEKFKSRATLTADKSSSTAYMQLHSLTSEDSAVYYCNYYDGGHDSWGQTTLTVSS
light: MEFHTQVFVFVFLWLSGVDGDIVMTQSQKFMSTTLGDRVSIICKASQNVGTAVAWYQQKPGQSPKLLIYSTSNRYTGVPDRFTGSGSGTDFSLTISSVQSEDLADYFCHQYSSYLYTFGGGTRLEIK
modifications: Amino acid sequence of heavy chain of monoclonal antibody 180C 8A10; Amino acid sequence of light chain of monoclonal antibody 180C 8A10
B4: 180B 13F7: anti-naltrexone monoclonal antibody generated using naltrexone-3-Val-mcKLH; heavy chain SEQ ID NO:41, light chain SEQ ID NO:45 (antibody)
heavy: MRVLILVYLLTALPGILSDIQLQESGPGLVKPSQTVSLTCTVTGYSITYVNHWWNWIRQVSGNKLEWIGYISSSGSIDSNPSLKSRIAITRDTSKNQLFLQLKSVTTEDVGTYYCVSEDSSGYHYWGGTTLTVSS
light: MKLPVRLLVLMFWIPASSSDVVMTQTPLSLPVSLGDQASISCRSSQSLVFSNGKTYFHWYLQKPGQSPKLLIYRVSNRFSGVPDRFSGSGSGTDFTLKISRVEAEDLGVYFCSQSTHVPWTFGGGTKLEIK
modifications: Amino Acid sequence of heavy chain of monoclonal antibody 180B 13F7; Amino Acid sequence of light chain of monoclonal antibody 180B 13F7
B5: 180C 9D5: anti-naltrexone monoclonal antibody generated using naltrexone-3-Val-mcKLH; heavy chain SEQ ID NO:121, light chain SEQ ID NO:125 (antibody)
heavy: MGWNYIFLFLIATVTDVHSQVRLQQPGTDLVKPGASVKLSCRASGFTFTNYWMNWVKQRPGQGLEWIGEINTNGGTKYNENFKNKATLTVDQSSSTAYIQLSGLTSEDSAVYFCNYFDGNYDYWGQGTLTVSS
light: MEFHTQVFVFVFLWLSGVDGDIVMTQSQKFMSTPVGDRVSLTCRASQNVGTAVAWYQQKPGQPPKLLIYSTSNRFTGVPSRFTGSGSGTDFTLTITNMQSEDLADYFCHQYSSYPYTFGGGTKLEIK
modifications: Amino acid sequence for heavy chain of monoclonal antibody 180C 9D5; Amino acid sequence for light chain of monoclonal antibody 180C 9D5
B6: 180C 1F8: anti-naltrexone monoclonal antibody generated using naltrexone-3-Val-mcKLH; heavy chain SEQ ID NO:61, light chain SEQ ID NO:65 (antibody)
heavy: MEWSWIFLFFLSVTTGVHSQVQLQQSDAELVKPGTSVKISCKASGFTFTDHAIHWVKQRPEQGLEWIGYISPGNGDIKYNEKFKGKATLTADKSSSTAYMQLNSLTSEDSAVYFCDYYNGRVDYWGQTTLTVSS
light: MEFHTQVFVFVFLWLSGVDGDIVMTQSQKFMTTSVGDRVSITCKASQNVGSAVAWYQQKPGQSPKLLIYSASNRFTGVPDRFTGSGSRTDFTLTISNMQSDDLADYFCHQYRSYPYTFGGGTKLEIK
modifications: Amino Acid sequence of heavy chain of monoclonal antibody 180C 1F8; Amino Acid sequence of light chain of monoclonal antibody 180C 1F8
B7: 180C 7G8: anti-naltrexone monoclonal antibody generated using naltrexone-3-Val-mcKLH; heavy chain SEQ ID NO:81, light chain SEQ ID NO:85 (antibody, V domains shown)
VH: MYLGLNCVIIVFLLKGVQSEVKLEESGGGLVQPGGSVKLSCAVFGFTFSDPWMDWVRQSPEKGLEWVAEIRNKAYNHATYYAESVKGRFTISRDDSNSRVSLQMNNLRAEDTGVYYCTAGDSSHSYWQGTLVTVSA
VL: MEFQTQVFVFVLLWLSGVDGDIVMTQSQKFMSTSVGDRVSIICKASQNVRTAVAWYQQKPGQSPKTLIYLASNRHTGVPDRFTGSGSGTDFTLTISNVQAEDLADYFCLQHWNYPLTFGGGTKLEIK
modifications: Amino acid sequence of heavy chain of monoclonal antibody 180C 7G8; Amino acid sequence of light chain of monoclonal antibody 180C 7G8
B8: 180C 9G8: anti-naltrexone monoclonal antibody generated using naltrexone-3-Val-mcKLH; heavy chain SEQ ID NO:141, light chain SEQ ID NO:145 (antibody, V domains shown)
VH: MYLGLNCVIIVFLLKGVQSEVKLEESGGGLVQPGGSMKLSCAASGFTFSDAWMDWVRQSPEKGLEWVAEIRNKANNHATYYAESVKGRFTISRDDSNSRMFLQMDSLRAEDTGIYYCIGGIPRYFDVGAGTTVTVSS
VL: MESQTQVFVYMLLWLSGVDGDIVMTQSQKFMSTSVGDRVSITCKASQNVRTYVAWYQQKPGQSPKALLYSASYRYSGVPDRFIGSGSGTQFTLTISDVQSEDLAEYFCHQYNSYPLTFGGGTKLEIQ
modifications: Amino acid sequence of heavy chain of monoclonal antibody 180C 9G8; Amino acid sequence of light chain of monoclonal antibody 180C 9G8

One experiment is described as follows: inhibition ELISA, anti-naloxone monoclonal antibodies against key opioids (FIG. 7). The class given is binding. Conditions: free drug 20 μg/mL, plates coated with ovalbumin conjugate. The text has this: (§1) Mice with good anti-drug antibody titers and binding to free drug in the ELISA inhibition assays were selected to proceed with generation of monoclonal antibodies, in a similar manner to that described in U.S. Pat. No. 9,815,907 (issued to Sharma et al. on Nov. 14, 2017). In particular, mice with highest titers and best specificity were boosted three days prior to fusion. On the day of fusion, spleen cells were harvested from these mice and were fused with myeloma cell line P3X63Ag8.653 using PEG-assisted fusion protocols. After about ten days, hybridoma supernatants were screened for anti-naloxone and anti-naltrexone antibodies using a plate ELISA (direct binding and inhibition ELISA for specificity). Positive clones were further expanded and sub-cloned, and supernatants were purified using a Protein A SEPHAROSE® (GE Healthcare, Chicago, IL) column. Purified antibody samples were tested using ELISA for binding to the immunogen (i.e., a conjugate of drug-carrier protein) and to free opioids.
(§2) Antibody solution (Immune mouse bleeds or hybridoma clones supernatant or purified antibody) was screened using an inhibition ELISA procedure according to the following protocol. […] Plate coating was performed for 1 hour or more at room temperature or overnight at about 2° C. to 8° C. The plates were then flicked dry and blocked with 200 μL per well of blocking buffer solution (0.5% Casein solution in PBS containing 0.05% TWEEN® 20 surfactant (Croda International PLC, Snaith, United Kingdom). Plate blocking was performed by incubation for 30 minutes or more at room temperature with plate shaking. The plates were washed using a plate washer (BioTek®, Winooski, VT) with plate stacker with the washing buffer being MILLIQ® water (Millipore Corporation, Billerica, MA) containing 0.05% TWEEN® 20. The monoclonal antibody to be screened was then added to each well along with free drug as follows: 25 μL per well of appropriately diluted culture supernatant (or antibody solution) and added 25 μL of 20 μg/mL of free drug. Incubation was performed for about 1 hour at room temperature with plate shaking. The plate was washed. An enzyme conjugate (goat anti-mouse IgG coupled to HRP diluted in blocking buffer diluted to 1:3000) was added at 50 μL per well. Incubation was performed for about 1 hour at room temperature with shaking. The plate was then washed, and a chromogenic solution (TMB from Moss Substrates, Pasadena MD) was added at a volume of 100 μL per well. If a desired antibody was present in the hybridoma supernatant, then a decrease in optical density was observed compared to the well containing no free drug. The plates were read at 650 nm wavelength using an ELISA plate reader (Molecular Devices, San Jose, CA). Note: appropriate dilution of antibody solution was determined by performing a titration ELISA. The antibody dilution was chosen where around 1.0 optical density was observed.
On to B1, for which the “specificity for naloxone over the other key opioids tested in the inhibition ELISA assay” value is on record as “good specificity for naloxone”.

Regarding B2, the “specificity for naloxone over the other key opioids tested in the inhibition ELISA assay” value is given as “good specificity for naloxone”.

The next experiment can be described thus: inhibition ELISA, anti-naltrexone monoclonal antibodies against key opioids (FIG. 8). The conditions noted are these: free drug 20 μg/mL, plates coated with ovalbumin conjugate. The class given is binding.
Description: as §1, §2
On to B3, for which the “specificity for naltrexone over the other key opioids tested in the inhibition ELISA assay” value was “good specificity for naltrexone”.

Turning to B4, the “specificity for naltrexone over the other key opioids tested in the inhibition ELISA assay” value is given as “good specificity for naltrexone”.

For B5, the “specificity for naltrexone over the other key opioids tested in the inhibition ELISA assay” value is on record as “good specificity for naltrexone”.

In the case of B6, the “specificity for naltrexone over the other key opioids tested in the inhibition ELISA assay” value was “good specificity for naltrexone”.

B7: the “specificity for naltrexone over the other key opioids tested in the inhibition ELISA assay” value was “good specificity for naltrexone”.

Turning to B8, the “specificity for naltrexone over the other key opioids tested in the inhibition ELISA assay” value is recorded as “good specificity for naltrexone”.
